Publication PMC8239462 (2021)

B1: RAP (commercial; R&D, 4296-LR) (natural protein)
chain: YSREKNQPKPSPKRESGEEFRMEKLNQLWEKAQRLHLPPVRLAELHADLKIQERDELAWKKLKLDGLDEDGEKEARLIRNLNVILAKYGLDGKKDARQVTSNSLSGTQEDGLDDPRLEKLWHKAKTSGKFSGEELDKLWREFLHHKEKVHEYNVLLETLSRTEEIHENVISPSDLSDIKGSVLHSRHTELKEKLRSINQGLDRLRRVSHQGYSTEAEFEEPRVIDLWDLAQSANLTDKELEAFREELKHFEAKIEKHNHYQKQLEIAHEKLRHAESVGDGERVSRSREKHALLEGRTKELGYTVKKHLQDLSGRISRARHNEL
modifications: Limits by convention: cluster IV = CR.21-31 (LDL-receptor class A repeats 21-31); vendor limits are not printed. Likely supplied as an Fc chimera, as for commercial cluster II (Fc omitted; may be a dimer). Ca2+-bound, three disulfides per CR.
B2: RAP (commercial; R&D, 4296-LR) (natural protein)
chain: B1 chain

Assays:
[1] = biological target: LRP1 Cluster IV (commercial) (Homo sapiens); experiment: SPR
LRP1 Cluster IV (commercial) (Homo sapiens), sequence (chain, as listed by the source): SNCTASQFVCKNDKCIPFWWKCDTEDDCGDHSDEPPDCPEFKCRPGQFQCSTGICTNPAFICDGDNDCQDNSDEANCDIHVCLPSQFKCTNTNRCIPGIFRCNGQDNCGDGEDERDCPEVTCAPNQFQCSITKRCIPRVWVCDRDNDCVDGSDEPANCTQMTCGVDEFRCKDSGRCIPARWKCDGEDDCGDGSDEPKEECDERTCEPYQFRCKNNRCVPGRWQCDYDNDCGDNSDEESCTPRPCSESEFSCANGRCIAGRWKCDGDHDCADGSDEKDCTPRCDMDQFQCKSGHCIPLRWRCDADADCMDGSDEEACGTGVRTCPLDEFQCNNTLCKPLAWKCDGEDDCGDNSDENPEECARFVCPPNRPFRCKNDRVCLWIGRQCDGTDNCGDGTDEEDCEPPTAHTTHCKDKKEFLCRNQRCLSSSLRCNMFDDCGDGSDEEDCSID

LRP1 CR.7 singlet [2] = biological target: T1, LRP1 CR.7 singlet (human, UniProt Q07954 1013-1053); experiment: SPR; CR.7 expressed with RAP (RAP+)
T1 sequence (Q07954 1013-1053): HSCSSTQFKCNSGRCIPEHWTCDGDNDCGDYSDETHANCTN

[3] = biological target: T2, vLDLR CR cluster (8 CRs), recombinant, secreted from Sf9 cells (human, UniProt P98155 28-355); experiment: SPR; vLDLR cluster expressed with RAP (RAP+)
LRP1 CR.7 singlet [4] = biological target: T1, LRP1 CR.7 singlet; experiment: SPR; CR.7 expressed without RAP (RAP-)
[5] = biological target: T2, vLDLR CR cluster (8 CRs), recombinant, …; experiment: SPR; vLDLR cluster expressed without RAP (RAP-)

Binder	Kd [1] [nM]	Kd (LRP1 CR.7 singlet [2]) [nM]	Kd [3] [nM]	Kd (LRP1 CR.7 singlet [4]) [nM]	Kd [5] [nM]
B1	~2.5	–	–	–	–
B2	–	37.6	~1.6	67.9	~1.7
